# Reference: the RNAGym collection of RNA variant scans (doi:10.7554/elife.80360)
# B1: Hairpin Ribozyme (parent)
# chain: GUCCUCUUUCACGUGCGCGUGAAAGAGAGAAGUGAACCAGAGAAACACACGUUGUGGUAUAUUACCUGGUA
# Variants of: B1
# Assay: self-cleavage, relative activity (ratio to wild type); higher = more cleavage; co-transcriptional
row,Variant,self-cleavage
1,G15U A36G,1.25
2,G15U U62G,0.189
3,G15U U62C,0.461
4,G15U U62A,0.2
5,G15C U55C,0.276
6,G15C U55A,0.279
7,G15C U55G,0.487
8,G15U G42C,0.44
9,C16A G56A,0.0316
10,C16A A22G,0.617
11,C16A A41U,1.3
12,C16A A41G,0.818
13,C16A G42U,0.276
14,G15U G25C,0.705
15,C16G G57C,0.108
16,G15C G54A,0.532
17,G15C G54C,0.404
18,G15C G68U,0.235
19,C16A A23U,0.727
20,G15U C50G,0.353
21,G15U A71C,1.53
22,C16G G25U,0.547
23,C16G G25C,0.302
24,C16A G69A,0.308

row,Variant,self-cleavage
1,C16A G27A,0.36
2,C16G A23C,0.763
3,C16G C37A,0.244
4,G15U G68C,0.137
5,G15C G32U,0.113
6,C16G G32U,0.18
7,C16A A47G,0.197
8,G15U C46G,0.167
9,G15C U20C,0.997
10,G15C U20G,0.828
11,G15U A24U,0.957
12,G15U U52G,0.94
13,G15U U52A,0.863
14,G15C G42A,0.0806
15,G15C U70C,0.965
16,G15C U70G,0.946
17,G15U U67A,0.206
18,G15U U58C,0.889
19,G15U A35C,1.16
20,G15U A35G,0.933
21,G15U C66A,0.367
22,C16G G27C,0.222
23,C16G G27A,0.37
24,C16G G27U,0.106

row,Variant,self-cleavage
1,G15U G69U,0.176
2,G15C U67A,0.112
3,G15C U67C,0.2
4,G15U C16U,0.937
5,G15U C18U,1.03
6,G15U C18A,1.07
7,C16G A47C,0.293
8,C16A A28U,0.611
9,C16A A28C,0.569
10,C16A A28G,0.988
11,C16A A30C,0.134
12,C16A A30U,0.154
13,C16G A24U,0.69
14,C16G A24C,0.688
15,G15U A43C,0.195
16,G15U A31C,0.118
17,C16G G29C,0.141
18,C16A G34C,1.44
19,C16A A49U,0.206
20,C16A A49G,0.389
21,G15U U20G,0.853
22,G15U U20A,0.941
23,G15U G56C,0.195
24,C16G A31G,0.431

row,Variant,self-cleavage
1,C16G C48A,0.0451
2,C16G C48G,0.19
3,G15U A44C,0.145
4,G15C G40A,0.315
5,C16A C18A,1.14
6,G15U G19A,0.968
7,C16A C66G,0.249
8,G15C G57U,0.282
9,G15C U53G,0.695
10,G15C U53C,1.02
11,G15U C38U,0.662
12,G15U C38A,0.124
13,G15C U63C,0.13
14,G15U C65A,1.15
15,C16G U52G,0.443
16,C16G U52C,0.718
17,C16A A26G,0.911
18,C16A C48U,0.0945
19,C16A A71U,0.776
20,C16A U33C,0.2
21,C16G A26G,0.766
22,C16G A26C,0.388
23,G15U U60C,1.01
24,C16A A64U,0.14

row,Variant,self-cleavage
1,G15C G34U,0.975
2,C16A G25U,0.589
3,C16A A31U,0.0142
4,C16G G19A,0.646
5,G15C U62G,0.134
6,G15U A59C,0.11
7,G15C G69U,0.276
8,C16A A45U,0.176
9,C16G G34A,0.883
10,C16G G34U,1.34
11,C16G C18A,1.03
12,C16G U20C,0.868
13,C16G U53C,0.949
14,G15U A45U,0.221
15,C16A U58A,0.597
16,C16G A39G,0.288
17,C16G A39U,0.355
18,C16G A41U,1.35
19,C16G A41G,0.593
20,C16G A28C,0.289
21,G15U U33A,0.248
22,G15U U33G,0.18
23,C16A A59C,0.213
24,C16A U67C,0.24

row,Variant,self-cleavage
1,C16A U67A,0.246
2,C16A A35C,1.26
3,C16A A35U,0.789
4,C16A G68U,0.181
5,C16A G68C,0.176
6,G15U G32U,0.144
7,G15U G32A,0.0947
8,G15U U55C,0.306
9,G15U U55G,0.302
10,G15U G29C,0.125
11,C16A A61U,0.226
12,C16A U70G,0.461
13,C16G A71U,0.552
14,G15U U70C,0.999
15,C16A G57C,0.127
16,G15C G51C,1.23
17,G15C G51A,0.796
18,C16A G19C,0.736
19,G15C U52G,0.812
20,G15U G17U,1.06
21,C16G G17A,0.894
22,C16G G17C,0.717
23,C16G G56A,0.073
24,G15U A41G,0.943

row,Variant,self-cleavage
1,C16G A49U,0.221
2,C16G A59G,0.17
3,G15U A39U,0.544
4,C16A C65A,0.845
5,C16A C65G,0.255
6,G15C U60C,1.25
7,C16G G51A,0.798
8,G15U A22U,0.996
9,C16G A36G,1.06
10,C16G A36C,0.399
11,C16A C38U,0.577
12,G15U A28C,0.619
13,G15U A28G,1.16
14,C16A G54A,0.388
15,C16G C66U,0.422
16,G15U A26G,0.895
17,C16A A44C,0.229
18,C16G C65A,0.976
19,C16G C65U,0.167
20,C16G A30C,0.177
21,C16G A30G,0.0703
22,G15U G54C,0.385
23,C16G C46U,0.0715
